# Reference: paper PMC6182153 (Nucleic Acids Research, 2018)
# T1: Streptococcus pyogenes type II-A Cas1 with a C-terminal (His)6 tag (Streptococcus pyogenes, UniProt Q99ZW1 1-289)
# T1 sequence (looked up): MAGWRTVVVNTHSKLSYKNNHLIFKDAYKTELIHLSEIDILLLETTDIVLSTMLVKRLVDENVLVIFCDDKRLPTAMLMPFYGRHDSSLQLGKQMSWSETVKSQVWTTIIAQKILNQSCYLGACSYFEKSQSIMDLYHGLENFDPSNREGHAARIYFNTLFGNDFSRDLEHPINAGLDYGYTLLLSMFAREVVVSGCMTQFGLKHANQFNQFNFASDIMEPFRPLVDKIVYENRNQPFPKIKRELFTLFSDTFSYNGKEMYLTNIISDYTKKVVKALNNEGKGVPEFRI
# B1: Streptococcus pyogenes type II-A Csn2 (natural protein, UniProt Q99ZV9 1-220, looked up)
# chain: MNLNFSLLDEPIPLRGGTILVLEDVCVFSKIVQYCYQYEEDSELKFFDHKMKTIKESEIMLVTDILGFDVNSSTILKLIHADLESQFNEKPEVKSMIDKLVATITELIVFECLENELDLEYDEITILELIKSLGVKVETQSDTIFEKCLEILQIFKYLTKKKLLIFVNSGAFLTKDEVASLQEYISLTNLTVLFLEPRELYDFPQYILDEDYFLITKNMV
# B2: N-terminal (His)6-MBP-tagged full-length Streptococcus pyogenes type II-A Cas2 (natural protein, UniProt Q99ZW0 1-113, looked up)
# chain: MSYRYMRMILMFDMPTDTAEERKAYRKFRKFLLSEGFIMHQFSIYSKLLLNNTANNAMIGRLREHNPNKGNITLLTVTEKQFARMIYLHGERNNCIANSDERLVFLGEAFDES
# B3: Cas1-(His)6-MBP-Cas2 complex (complex, Streptococcus pyogenes)
# chain 1: T1 sequence (looked up)
# chain 2: B2 chain
# What was measured:
# [1] = target: B3; test: ITC
# [2] = target: Streptococcus pyogenes type II-A Cas9 with a C-terminal (His)6 tag (Streptococcus pyogenes, UniProt Q99ZW2 1-1368); test: SPR
# [3] = target: T1, Streptococcus pyogenes type II-A Cas1 …; test: ITC
# [4] = target: B1; test: ITC
# Sequence of Streptococcus pyogenes type II-A Cas9 with a C-terminal (His)6 tag (Q99ZW2 whole entry): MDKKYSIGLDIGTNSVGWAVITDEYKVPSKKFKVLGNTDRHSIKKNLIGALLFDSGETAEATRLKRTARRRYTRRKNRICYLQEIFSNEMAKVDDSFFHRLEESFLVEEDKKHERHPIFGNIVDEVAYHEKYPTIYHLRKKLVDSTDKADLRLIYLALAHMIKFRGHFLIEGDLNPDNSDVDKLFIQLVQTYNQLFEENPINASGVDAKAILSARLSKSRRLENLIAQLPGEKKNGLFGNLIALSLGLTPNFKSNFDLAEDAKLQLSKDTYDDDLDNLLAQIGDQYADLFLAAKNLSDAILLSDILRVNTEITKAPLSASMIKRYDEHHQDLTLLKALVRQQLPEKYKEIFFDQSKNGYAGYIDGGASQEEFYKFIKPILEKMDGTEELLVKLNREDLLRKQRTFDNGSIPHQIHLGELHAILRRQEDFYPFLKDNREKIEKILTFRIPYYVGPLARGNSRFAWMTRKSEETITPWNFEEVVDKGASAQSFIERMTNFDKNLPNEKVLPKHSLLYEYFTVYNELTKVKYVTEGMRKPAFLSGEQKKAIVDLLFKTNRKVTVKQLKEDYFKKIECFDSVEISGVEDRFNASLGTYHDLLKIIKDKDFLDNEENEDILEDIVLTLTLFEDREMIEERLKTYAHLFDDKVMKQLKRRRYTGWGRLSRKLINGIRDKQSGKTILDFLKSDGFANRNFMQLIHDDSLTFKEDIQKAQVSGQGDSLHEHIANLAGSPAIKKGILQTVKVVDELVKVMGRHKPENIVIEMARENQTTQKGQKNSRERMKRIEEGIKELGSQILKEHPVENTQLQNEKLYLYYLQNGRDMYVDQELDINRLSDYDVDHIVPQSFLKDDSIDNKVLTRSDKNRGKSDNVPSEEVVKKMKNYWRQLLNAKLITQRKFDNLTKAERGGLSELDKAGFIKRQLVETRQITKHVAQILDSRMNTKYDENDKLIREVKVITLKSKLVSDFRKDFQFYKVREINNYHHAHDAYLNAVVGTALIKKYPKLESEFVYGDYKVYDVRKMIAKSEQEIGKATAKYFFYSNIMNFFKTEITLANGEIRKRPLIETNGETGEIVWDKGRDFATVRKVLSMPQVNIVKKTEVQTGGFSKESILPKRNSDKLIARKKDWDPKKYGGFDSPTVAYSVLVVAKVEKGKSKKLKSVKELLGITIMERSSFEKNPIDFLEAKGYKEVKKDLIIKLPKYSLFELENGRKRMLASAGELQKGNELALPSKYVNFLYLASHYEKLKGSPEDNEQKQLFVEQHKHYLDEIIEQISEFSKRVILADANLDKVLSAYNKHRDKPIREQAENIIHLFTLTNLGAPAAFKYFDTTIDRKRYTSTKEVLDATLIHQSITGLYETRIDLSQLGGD
binder,measurement,setting,value
B1,Kd,[1],520 nM
same,Kd,[2],110 nM
B2,Kd,[3],240 nM
same,stoichiometry N,[3],0.44 (His)6-MBP-Cas2 per Cas1
B3,stoichiometry N,[4],2.1 Cas1–(His)6-MBP-Cas2 complex per Csn2 tetramer
